From PMC6446838

Experiments:
[1] = biological target: full-length KIF5B-GFP with C-terminal Strep-tag (human) (UniProt P33176)
[2] = biological target: K560-GFP with C-terminal Strep-tag, purified (human) (UniProt P33176)
Chain of K560-GFP with C-terminal Strep-tag, purified (human) (P33176 1-560): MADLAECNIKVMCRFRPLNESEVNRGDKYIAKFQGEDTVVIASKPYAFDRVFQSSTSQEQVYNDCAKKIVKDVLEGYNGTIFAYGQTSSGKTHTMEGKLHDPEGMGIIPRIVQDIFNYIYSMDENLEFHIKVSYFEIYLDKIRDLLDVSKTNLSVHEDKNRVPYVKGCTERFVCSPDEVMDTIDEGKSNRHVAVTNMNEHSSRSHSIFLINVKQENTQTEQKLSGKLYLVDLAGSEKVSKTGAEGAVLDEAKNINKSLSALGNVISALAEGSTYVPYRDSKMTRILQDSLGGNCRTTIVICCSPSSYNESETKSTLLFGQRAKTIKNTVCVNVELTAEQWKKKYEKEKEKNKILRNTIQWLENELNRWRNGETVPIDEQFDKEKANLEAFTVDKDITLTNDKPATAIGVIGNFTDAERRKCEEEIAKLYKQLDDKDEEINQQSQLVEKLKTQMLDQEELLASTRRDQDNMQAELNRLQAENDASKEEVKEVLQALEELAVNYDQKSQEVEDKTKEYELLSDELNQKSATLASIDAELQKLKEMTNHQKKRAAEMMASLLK

Chain of Alexa Fluor 647–labeled SNAP-tag-MAP7, full length (Q14244 whole entry): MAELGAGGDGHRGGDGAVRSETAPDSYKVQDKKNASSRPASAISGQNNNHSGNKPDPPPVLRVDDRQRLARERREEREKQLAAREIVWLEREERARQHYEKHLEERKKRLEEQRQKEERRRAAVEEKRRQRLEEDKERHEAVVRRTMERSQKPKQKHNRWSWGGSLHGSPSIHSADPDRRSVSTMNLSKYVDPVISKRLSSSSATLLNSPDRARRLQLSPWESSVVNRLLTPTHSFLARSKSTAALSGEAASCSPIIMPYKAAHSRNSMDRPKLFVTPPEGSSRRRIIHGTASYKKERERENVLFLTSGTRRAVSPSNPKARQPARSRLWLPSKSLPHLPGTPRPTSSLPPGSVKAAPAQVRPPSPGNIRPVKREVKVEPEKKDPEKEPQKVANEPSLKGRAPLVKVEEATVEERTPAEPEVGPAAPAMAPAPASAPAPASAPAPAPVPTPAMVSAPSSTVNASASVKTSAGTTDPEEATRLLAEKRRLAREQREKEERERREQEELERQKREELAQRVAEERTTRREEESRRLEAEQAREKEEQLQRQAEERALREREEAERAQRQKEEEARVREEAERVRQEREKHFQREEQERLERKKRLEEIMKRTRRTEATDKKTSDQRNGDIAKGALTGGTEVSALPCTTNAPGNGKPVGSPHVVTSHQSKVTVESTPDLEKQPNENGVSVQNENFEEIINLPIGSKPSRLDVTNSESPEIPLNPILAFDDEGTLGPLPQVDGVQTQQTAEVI
Chain of full-length KIF5B-GFP with C-terminal Strep-tag (human) (P33176 whole entry): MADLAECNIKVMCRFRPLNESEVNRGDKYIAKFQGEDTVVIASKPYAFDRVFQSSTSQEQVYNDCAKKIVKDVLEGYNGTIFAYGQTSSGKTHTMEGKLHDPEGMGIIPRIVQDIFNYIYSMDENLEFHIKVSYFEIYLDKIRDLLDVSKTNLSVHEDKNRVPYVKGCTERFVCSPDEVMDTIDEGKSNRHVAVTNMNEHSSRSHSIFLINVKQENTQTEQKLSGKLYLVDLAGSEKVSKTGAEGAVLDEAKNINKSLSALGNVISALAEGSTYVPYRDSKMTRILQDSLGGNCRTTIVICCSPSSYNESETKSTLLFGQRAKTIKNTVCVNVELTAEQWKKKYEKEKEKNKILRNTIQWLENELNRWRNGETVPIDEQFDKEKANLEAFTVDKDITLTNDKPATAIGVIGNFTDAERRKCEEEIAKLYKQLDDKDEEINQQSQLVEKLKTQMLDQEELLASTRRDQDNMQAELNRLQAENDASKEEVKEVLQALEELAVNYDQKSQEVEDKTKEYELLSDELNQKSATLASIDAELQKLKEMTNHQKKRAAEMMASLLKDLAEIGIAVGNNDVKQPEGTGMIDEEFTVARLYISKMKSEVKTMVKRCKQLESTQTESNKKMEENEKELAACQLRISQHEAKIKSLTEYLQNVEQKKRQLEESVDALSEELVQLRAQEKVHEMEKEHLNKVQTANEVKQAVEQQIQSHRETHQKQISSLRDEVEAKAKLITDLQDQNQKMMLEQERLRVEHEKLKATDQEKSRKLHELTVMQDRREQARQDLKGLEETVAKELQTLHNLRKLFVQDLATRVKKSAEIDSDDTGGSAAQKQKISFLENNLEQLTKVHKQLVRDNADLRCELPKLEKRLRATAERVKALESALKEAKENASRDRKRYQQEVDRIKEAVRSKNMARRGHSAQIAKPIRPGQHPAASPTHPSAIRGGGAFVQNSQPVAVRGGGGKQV

Substance: Alexa Fluor 647–labeled SNAP-tag-MAP7, full length (from UniProt Q14244 1-749) (natural protein)
- events of full-length KIF5B-GFP on dynamic MTs in vitro (short binding events and landing followed by processive movement), with MAP against kinesin alone [1]: > 60 fold
- run length of full-length KIF5B-GFP on dynamic MTs in vitro, with MAP against kinesin alone [1]: 1.6 fold
- landing frequency of K560-GFP on MAP-decorated dynamic MTs in vitro, increasing MAP concentrations, against K560 alone [2]: < 23.6 fold
- processivity (run length) of K560-GFP on dynamic MTs in vitro [2]: 2 fold
